Test results taken from patent publication US20180194862A1 (AbbVie / Abbott, published 2018).

T1: mouse CD40 (mouse, UniProt P27512 20-193, limits assumed)
T1 construct: also called murine CD40
T1 sequence (looked up): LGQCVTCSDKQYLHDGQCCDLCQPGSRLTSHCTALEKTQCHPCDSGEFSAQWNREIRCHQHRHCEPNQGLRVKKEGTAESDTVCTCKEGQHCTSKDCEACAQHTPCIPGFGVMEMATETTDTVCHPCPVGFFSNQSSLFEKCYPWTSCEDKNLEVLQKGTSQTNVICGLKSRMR

T2: dog CD40 (dog, UniProt Q7YRL5 21-194, limits assumed)
T2 sequence (looked up): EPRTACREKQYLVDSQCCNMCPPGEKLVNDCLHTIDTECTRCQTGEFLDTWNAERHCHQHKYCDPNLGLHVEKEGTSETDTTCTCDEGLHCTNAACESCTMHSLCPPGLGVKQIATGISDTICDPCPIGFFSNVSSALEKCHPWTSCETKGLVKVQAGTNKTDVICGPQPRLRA


Key:
[1] = biological target: human CD40 on cells (HEK293 stable transfectants, HEK-Blue CD40 cells, human B cells, monocytic cells, … (human, UniProt P25942 21-277)); assay: cell-based or functional assay
[2] = biological target: T1, mouse CD40; assay: FACS
[3] = biological target: T2, dog CD40; assay: FACS
[4] = biological target: T3, mesothelin on cells (endogenous on SN12C, OVCAR3, SW1990); HEK293 cells expressing cell-surface human … (human, UniProt Q13421 296-598); assay: FACS, SN12C (CA125-)
T3 construct: whole, on cells; also called cell-surface MSLN
Procedure: (§1) The binding of anti-mesothelin affinity matured variants was measured by FACS on the ovarian cancer cell line OVCAR3, the pancreatic cancer cell line SW1990, and the renal cancer cell line SN12C. Both OVCAR3 and SW1990 express CA125, but CA125 expression on SN12C cells was not detected.

[5] = biological target: T3, mesothelin on cells (endogenous on …); assay: FACS, OVCAR3 (CA125+)
Procedure: as §1

[6] = biological target: T4, cynomolgus mesothelin (cynomolgus); assay: SPR
T4 construct: also called cynoMSLN; Cyno MSLN

[7] = biological target: T5, human mesothelin (human, UniProt Q13421 296-580, limits assumed); assay: SPR
T5 construct: also called Human MSLN
T5 sequence (Q13421 other isoform, or with tags, fused parts or gaps limits assumed): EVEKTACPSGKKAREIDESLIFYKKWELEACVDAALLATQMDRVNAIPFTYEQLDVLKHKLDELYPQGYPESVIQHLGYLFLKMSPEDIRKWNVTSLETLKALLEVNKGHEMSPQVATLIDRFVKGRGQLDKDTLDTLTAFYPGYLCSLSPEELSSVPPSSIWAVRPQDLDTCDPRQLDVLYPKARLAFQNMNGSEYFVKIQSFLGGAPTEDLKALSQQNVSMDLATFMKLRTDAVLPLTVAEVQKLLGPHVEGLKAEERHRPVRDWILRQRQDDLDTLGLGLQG

Sequence of human CD40 on cells (HEK293 stable transfectants, HEK-Blue CD40 cells, human B cells, monocytic cells, … (P25942 21-277 limits assumed): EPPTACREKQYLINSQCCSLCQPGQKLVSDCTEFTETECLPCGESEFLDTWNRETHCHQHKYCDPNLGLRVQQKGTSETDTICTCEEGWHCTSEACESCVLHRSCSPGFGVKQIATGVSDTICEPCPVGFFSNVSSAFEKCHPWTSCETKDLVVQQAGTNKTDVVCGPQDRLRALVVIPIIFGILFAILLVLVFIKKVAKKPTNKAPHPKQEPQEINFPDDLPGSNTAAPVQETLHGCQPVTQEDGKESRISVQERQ
T3 sequence (Q13421 other isoform, or with tags, fused parts or gaps limits assumed): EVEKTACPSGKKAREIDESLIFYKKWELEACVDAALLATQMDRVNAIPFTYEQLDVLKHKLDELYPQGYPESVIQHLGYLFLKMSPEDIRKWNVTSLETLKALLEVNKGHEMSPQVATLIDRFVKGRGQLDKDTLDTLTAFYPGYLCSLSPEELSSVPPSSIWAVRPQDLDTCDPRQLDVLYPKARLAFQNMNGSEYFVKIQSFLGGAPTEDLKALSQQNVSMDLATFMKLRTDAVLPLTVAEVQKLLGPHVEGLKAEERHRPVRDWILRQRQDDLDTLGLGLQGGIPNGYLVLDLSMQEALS

Binder	Maximal activation (OD655) [1] [OD655]	NF-κB activation EC50, HEK293 CD40 NFκB reporter cells [1] [µg/mL]	binding result [2]	binding result [3]	EC50 [4] [µg/mL]	Maximum binding (MFI) [4] [MFI]	EC50 [5] [µg/mL]	Maximum binding (MFI) [5] [MFI]	Kd [6] [nM]	koff [6] [s⁻¹]	kon [6] [M⁻¹ s⁻¹]	Kd [7] [nM]	koff [7] [s⁻¹]	kon [7] [M⁻¹ s⁻¹]
huAb6-2 (antibody, human IgG1, V domains shown, human IgG1, kappa) VH: EVQLVQSGAEVKKPGSSVKVSCKASGYTFTSYWMHWVRQAPGQGLEWIGNIDPSNGETHYNQKFKDRVTITVDKSTSTAYMELSSLRSEDTAVYYCARERIYYSGSTYDGYFDVWGQGTTVTVSS VL: DIQLTQSPSFLSASVGDRVTITCSASSSLSYMHWYQQKPGKSPKRWIYDTSKLASGVPSRFSGSGSGTEYTLTISSLQPEDFATYYCQQWSSNPWTFGGGTKVEIK	0.2	1.21	no binding	no binding	–	–	–	–	–	–	–	–	–	–
huAb6-1 (antibody, human IgG1, V domains shown, human IgG1 heavy chain constant region, kappa light chain constant region) VH: EVQLVQSGAEVKKPGSSVKVSCKASGYTFTSYWMHWVRQAPGQGLEWIGNIDPSNGETHYNQKFKDRATLTVDKSTSTAYMELSSLRSEDTAVYYCARERIYYSGSTYDGYFDVWGQGTTVTVSS VL: DIQLTQSPSFLSASVGDRVTITCSASSSLSYMHWYQQKPGKSPKRWIYDTSKLASGVPSRFSGSGSGTEYTLTISSLQPEDFATYYCQQWSSNPWTFGGGTKVEIK	0.26	1.09	no binding	no binding	–	–	–	–	–	–	–	–	–	–
huAb6-3 (antibody, human IgG1, V domains shown, human IgG1, kappa) VH: EVQLVQSGAEVKKPGSSVKVSCKASGYTFTSYWMHWVRQAPGQGLEWIGNIDPSNGETHYAQKFQGRVTITVDKSTSTAYMELSSLRSEDTAVYYCARERIYYSGSTYDGYFDVWGQGTTVTVSS VL: DIQLTQSPSFLSASVGDRVTITCSASSSLSYMHWYQQKPGKSPKRWIYDTSKLASGVPSRFSGSGSGTEYTLTISSLQPEDFATYYCQQWSSNPWTFGGGTKVEIK	0.32	4.31	no binding	no binding	–	–	–	–	–	–	–	–	–	–
huAb8-3 (antibody, human IgG1, V domains shown, human IgG1, kappa) VH: EVQLVQSGAEVKKPGSSVKVSCKASGYTFTDYYINWVRQAPGQGLEWIGWIFPGSGSVYCNEQFKGRVTITVDKSTSTAYMELSSLRSEDTAVYYCASSLGKFAYWGQGTLVTVSS VL: DIQMTQSPSSLSASVGDRVTITCKASQSVVTAVAWYQQKPGKSPKLLIYSASNRYTGVPSRFSGSGSGTDFTLTISSLQPEDFATYFCQQYSSYPYTFGGGTKVEIK	0.46	0.07	no binding	no binding	–	–	–	–	–	–	–	–	–	–
huAb9-2 (antibody, human IgG1, V domains shown, human IgG1, kappa) VH: EVQLQESGPGLVKPSETLSLTCTVSGYSITSNYYWNWIRQPPGKGLEWMGYIRYDGSNNYNPSLKNRVTISRDTSKNQFSLKLSSVTAADTAVYYCARLDYWGQGTTVTVSS VL: DAVMTQTPLSLSVTPGQPASISCRSSQSLENTNGNTFLNWFLQKPGQSPQLLIYRVSNRFSGVPDRFSGSGSGTDFTLKISRVEAEDVGVYFCLQVTHVPFTFGQGTKLEIK	0.27	0.29	no binding	no binding	–	–	–	–	–	–	–	–	–	–
huAb9-1 (antibody, human IgG1, V domains shown, human IgG1, kappa) VH: EVQLQESGPGLVKPSETLSLTCTVSGYSITSNYYWNWIRQPPGKGLEWMGYIRYDGSNNYNPSLKNRITISRDTSKNQFSLKLSSVTAADTAVYYCARLDYWGQGTTVTVSS VL: DAVMTQTPLSLSVTPGQPASISCRSSQSLENTNGNTFLNWFLQKPGQSPQLLIYRVSNRFSGVPDRFSGSGSGTDFTLKISRVEAEDVGVYFCLQVTHVPFTFGQGTKLEIK	0.26	0.19	no binding	no binding	–	–	–	–	–	–	–	–	–	–
huAb9-3 (antibody, human IgG1, V domains shown, human IgG1, kappa) VH: EVQLQESGPGLVKPSETLSLTCTVSGYSISSNYYWNWIRQPPGKGLEWMGYIRYDGSNNYNPSLKSRVTISRDTSKNQFSLKLSSVTAADTAVYYCARLDYWGQGTTVTVSS VL: DAVMTQTPLSLSVTPGQPASISCRSSQSLENTNGNTFLNWFLQKPGQSPQLLIYRVSNRFSGVPDRFSGSGSGTDFTLKISRVEAEDVGVYFCLQVTHVPFTFGQGTKLEIK	0.27	0.18	no binding	no binding	–	–	–	–	–	–	–	–	–	–
HuAb17 (antibody, V domains shown, fully human antibody) VH: EVQLVQSGAEVKEPGASVKVSCKASGDTFNRYYVHWARQAPGQGLEWMGIINPSGVSTTYAQKFQGRVTMTRDTPTNTVYMELGSLRPEDTAVYFCAESRGSGYNYFAMDVWGQGTLVTVSS VL: SYELTQPPSVSVSPGQTADITCSGDKLGDKYASWYQQKPGQSPVLVIYQDNRRPSGIPERFSGSNSGNTATLTISGTQAMDEADYYCQAWDSDTYVFGPGTKVTVL	–	–	–	–	2.74	11000	2.9	1640	8.1	0.00013	15000	2.6	3.2e-05	12000
HuAM5 (antibody, V domains shown, fully human antibody) VH: EVQLVQSGAEVKKPGASVKVSCKASGDTFNRYYVHWVRQAPGQGLEWMGIINPSGVSTTYAQKFQGRVTMTRDTSTSTVYMELSSLRSEDTAVYYCAEVRGSGYNYFAMDVWGQGTLVTVSS VL: SYELTQPPSVSVSPGQTASITCSGDKLGDKYASWYQQKPGQSPVLVIYQDNRRPSGIPERFSGSNSGNTATLTISGTQAMDEADYYCQAWDSDTYVFGTGTKVTVL	–	–	–	–	0.09	10000	0.7	3690	4.9	0.0001	20000	≤ 0.46	≤ 1e-05	23000
HuAM11 (antibody, V domains shown, fully human antibody) VH: EVQLVQSGAEVKKPGASVKVSCKASGDTFKRYYMHWVRQAPGQGLEWMGIINPSGVSTTYAQKFQGRVTMTRDTSTSTVYMELSSLRSEDTAVYYCAEVRGSGFNYFGMDVWGQGTLVTVSS VL: SYELTQPPSVSVSPGQTASITCSGDKLGDKYASWYQQKPGQSPVLVIYQDNRRPSGIPERFSGSNSGNTATLTISGTQAMDEADYYCQVWDSDTYVFGTGTKVTVL	–	–	–	–	0.04	7530	0.7	3430	–	–	–	–	–	–
HuAM12 (antibody, V domains shown, fully human antibody) VH: EVQLVQSGAEVKKPGASVKVSCKASGDTFHRYYVHWVRQAPGQGLEWMGIINPSGVSTTYAQKFQGRVTMTRDTSTSTVYMELSSLRSEDTAVYYCAEVRGSGFNYFGMDVWGQGTLVTVSS VL: SYELTQPPSVSVSPGQTASITCSGDKLGDKYASWYQQKPGQSPVLVIYQDNRRPSGIPERFSGSNSGNTATLTISGTQAMDEADYYCQAWDSDTYVFGTGTKVTVL	–	–	–	–	0.09	9630	0.8	3270	–	–	–	–	–	–
HuAM13 (antibody, V domains shown, fully human antibody) VH: EVQLVQSGAEVKKPGASVKVSCKASGDTFNRYYVQWVRQAPGQGLEWMGIINPSGVSTTYAQKFQGRVTMTRDTSTSTVYMELSSLRSEDTAVYYCAETRGSGFNYFGMDVWGQGTLVTVSS VL: SYELTQPPSVSVSPGQTASITCSGDKLGDKYASWYQQKPGQSPVLVIYQDNRRPSGIPERFSGSNSGNTATLTISGTQAMDEADYYCQVWDSDTYVFGTGTKVTVL	–	–	–	–	0.09	9870	0.7	3670	–	–	–	–	–	–
HuAM14 (antibody, V domains shown, fully human antibody) VH: EVQLVQSGAEVKKPGASVKVSCKASGDTFKRYYMHWVRQAPGQGLEWMGIINPSGVSTTYAQKFQGRVTMTRDTSTSTVYMELSSLRSEDTAVYYCAEVRGSGFNYFGMDVWGQGTLVTVSS VL: SYELTQPPSVSVSPGQTASITCSGDKLGDKYASWYQQKPGQSPVLVIYQDNRRPSGIPERFSGSNSGNTATLTISGTQAMDEADYYCQAWDSDTYVFGTGTKVTVL	–	–	–	–	0.09	9800	0.7	3370	–	–	–	–	–	–
HuAM16 (antibody, V domains shown, fully human antibody) VH: EVQLVQSGAEVKKPGASVKVSCKASGDTFNRYYVQWVRQAPGQGLEWMGIINPSGVSTTYAQKFQGRVTMTRDTSTSTVYMELSSLRSEDTAVYYCAETRGSGFNYFGMDVWGQGTLVTVSS VL: SYELTQPPSVSVSPGQTASITCSGDKLGDKYASWYQQKPGQSPVLVIYQDNRRPSGIPERFSGSNSGNTATLTISGTQAMDEADYYCQAWDSDTYVFGTGTKVTVL	–	–	–	–	0.08	9540	0.6	3610	4.1	0.00019	47000	0.46	2.4e-05	52000
